Data set [1] concerns the target T1, T. brucei pyridoxal kinase (TbPdxK) (Trypanosoma brucei, UniProt O15927).
T1 sequence (O15927 1-300): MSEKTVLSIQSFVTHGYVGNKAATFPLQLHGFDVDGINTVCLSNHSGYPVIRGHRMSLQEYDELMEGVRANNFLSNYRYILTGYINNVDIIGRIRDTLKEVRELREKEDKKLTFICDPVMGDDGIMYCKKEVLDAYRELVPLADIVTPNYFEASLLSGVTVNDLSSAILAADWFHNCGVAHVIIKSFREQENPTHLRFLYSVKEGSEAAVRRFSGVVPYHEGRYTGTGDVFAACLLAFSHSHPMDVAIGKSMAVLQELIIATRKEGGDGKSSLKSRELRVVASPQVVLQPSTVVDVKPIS
Put plainly: coupled PK/LDH assay. The format is biochemical. The conditions noted are these: read-out: Km^app.

Substrate in data set [2]: Cc1ncc(CO)c(C=O)c1O
Description: purified protein. The format is biochemical, Trypanosoma brucei. The conditions noted are these: ATP, Mg2+.

Substrate in data set [3]: Cc1ncc(CO)c(CN)c1O
Put plainly: purified protein. It is filed as biochemical, Trypanosoma brucei. The following applies: ATP, Mg2+.

Substrate in data set [4]: Cc1ncc(CO)c(CO)c1O
Put plainly: purified protein. The format is biochemical, Trypanosoma brucei. The conditions noted are these: ATP, Mg2+.

Usually Km stands for the substrate concentration at which the rate is half of its maximum. As for `COCc1c(CO)cnc(C)c1O` [GT, ginkgotoxin], the Km in data set [1] was 46.6 ± 10.2 µM.

B1: T. brucei pyridoxal kinase (TbPdxK) (Trypanosoma brucei) (protein)
chain: MSEKTVLSIQSFVTHGYVGNKAATFPLQLHGFDVDGINTVCLSNHSGYPVIRGHRMSLQEYDELMEGVRANNFLSNYRYILTGYINNVDIIGRIRDTLKEVRELREKEDKKLTFICDPVMGDDGIMYCKKEVLDAYRELVPLADIVTPNYFEASLLSGVTVNDLSSAILAADWFHNCGVAHVIIKSFREQENPTHLRFLYSVKEGSEAAVRRFSGVVPYHEGRYTGTGDVFAACLLAFSHSHPMDVAIGKSMAVLQELIIATRKEGGDGKSSLKSRELRVVASPQVVLQPSTVVDVKPIS
With B1, the Km in data set [2] turned out to be 1.65 ± 0.14 µM; in data set [3] it was 59.4 ± 14.8 µM; in data set [4], 48.0 ± 12.7 µM.

Values taken from paper PMC3470933 (Molecular Microbiology, 2012).
